From the nanobody polyreactivity screen of Harvey et al. (2022)

Experiment: yeast display, Sf9 membrane polyspecificity reagent, FACS + sequencing; frameworks hold sequencing errors
In short: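 A nanobody's polyreactivity label depends on the gate it was sorted from. Yeast display cells were stained with 10% biotinylated, detergent-solubilized Sf9 membrane reagent for 1 hour at 4 °C, enriched on streptavidin microbeads and sorted by FACS. The low and high (top ~1%) gates were set on anti-HA fluorescence for expression and streptavidin fluorescence for reagent binding.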

Sequence	polyreactivity (PSR sort gate)
QVQLVESGGGLVQAGGSLRLSCAASGITFLQYAVGWYRPAPGKERELVAVISRGSRTYYADSVKGRFTISRDNAKNTVYLQMNSLKPEDTAVYYCAAVRGLAVGYDYWGQGTQVTVSS	high polyreactivity
QVQLVESGGGLVQAGGSLRLSCAASGITFLVNAMGWYRQAPGKERELVATITSGDSTSYADSVKGRFTISRDNAKNTVYLQMNSLKPEDTAVYFCAARPGYWAQYYPVGSRNYYWGQGTQVTVSS	low polyreactivity
QVQLVESGGGLVQAGGSLRLSCAASGITFLVYVMGWYRQAPGKERELVAAISSGGSTYYADSVKGRFTISRDNAKNTVYLQMNSLKPEDTAVYYCSADTVGTNVVSPELDYWGQGTQVTVSS	low polyreactivity
QVQLVESGGGLVQAGGSLRLSCAASGITFNAYVMGWYRQAPGKERELVATISQSGGSTYYADSVKGRFTISRDNAKNTVYLQMNSLKPEDTADYYCAARKYGYSYTVTRYYWGQGTQVTVSS	high polyreactivity
QVQLVESGGGLVQAGGSLRLSCAASGITFNNNGMGWYRQAPGKERELVASIRSGGRTNYADSVKGRFTISRDNAKNTVYLQMNSLKPEDTAVYYCAAVWYTSRQKYDYWGQGTQVTVSS	low polyreactivity
QVQLVESGGGLVQAGGSLRLSCAASGITFNPYVMGWYRQAPGKERELVAVITSGGSTNYADSVKGRFTISRDNAKITVYLEMNSLKPEDTAVYYCNVDRRPYYVWRVTYDYWGQGTQVTVSS	low polyreactivity
QVQLVESGGGLVQAGGSLRLSCAASGITFNQYAMGWYRQAPGKERELVARITKRGGSTYYADSVKGRFTISRDNAKNTVYLQMNSLKPEDTAVYYCAARTYYQEYDYWGQGTQVTVSS	high polyreactivity
QVQLVESGGGLVQAGGSLRLSCAASGITFNSYAMGWYRQAPGKERELVAAITLTGGTTYYADSVKGRFTISRDNAKNTVYLQMNSLKPEDTAVYYCAAQYWWWSRFEYDSWGQGTQVTVSS	low polyreactivity
QVQLVESGGGLVQAGGSLRLSCAASGITFNYNAMGWYRQAPGKERELVARITWSGTRTYYADSVKGRFTISRDNSKNTVYFQMNSLKPEDTAVYYCNAGPYARYYWGQGTQVTVSS	high polyreactivity
QVQLVESGGGLVQAGGSLRLSCAASGITFNYYAMGWYRQAPGKERELVAVISSSGGRTYYADSVKGRFTISRDNAKNTVYLQMNSLKPEDTAVYYCAAGGSVAFYYWGQGTQVTVSS	high polyreactivity
QVQLVESGGGLVQAGGSLRLSCAASGITFPGYAMGWYRQAPGKERELVAAISTSGGSTYYADSVKGRFTISRDNAKNTVYLQMIRLKPEDTAVYYCAADSFVTSFHWRFDYWGQGTQVTVSS	low polyreactivity
QVQLVESGGGLVQAGGSLRLSCAASGITFPKYAMGWYRQAPGTERELVAAITKSGGSTYYADSVKGRFTISRDNAKNTVYLQMNSLKPEDTEVYYCAVVSRGITKYDYWGQGTQVTVSS	high polyreactivity
QVQLVESGGGLVQAGGSLRLSCAASGITFPLYAMGWYRQAPGKERELVASITRGGTTNYADSVKGRFTISRDNAKNTVYLQMNSLKPEDTAVYYCAAVVTRERGYDYWGQGTQVTVSS	low polyreactivity
QVQLVESGGGLVQAGGSLRLSCAASGITFPRYAMGWYRQAPGKERELVATITSRGGSTYYADSVKGRFTISRDNAKNTVYLQMNSLKPEDTAVYYCNAQYLLFHGYRYDYWGQCTQVTVSS	high polyreactivity
QVQLVESGGGLVQAGGSLRLSCAASGITFPYYAMGWYRQAPGKERELVAAISSSGGSTYYADSVKGRFTISRDNAKNTVYLQMNSLKPEDTAVYYCAAQRYIHYDYWGQGTQVTVSS	high polyreactivity
QVQLVESGGGLVQAGGSLRLSCAASGITFPYYDMGWYRQAAGKERELVAAIDWSGATSYYADSVKGRFTISRDNAKNTVYLQMNSLKPEDTAVYHCNADPPLDLWYVTNRIYHLYDYWGQGTQVTVSS	high polyreactivity
QVQLVESGGGLVQAGGSLRLSCAASGITFQHYAMGWYRQAPGKERELVAAITWRGSNTYYADSVKGRFTISRDNAKNTVYLQMNSLKPEDTAVYYCAAVLSLRSRNYWGHGTQVTVSS	high polyreactivity
